Experimental findings from patent publication US20200369771A1 (JOINT STOCK COMPANY BIOCAD, published 2020) are described below.

A value given as a limit tells only on which side of the number the result lay.

The target in one experiment is T1, rabbit PD-L1-Fc (rabbit, UniProt G1SUI3 19-236).
T1 construct: also called rabbity PD-L1-Fc; not shown: Fc part
T1 sequence: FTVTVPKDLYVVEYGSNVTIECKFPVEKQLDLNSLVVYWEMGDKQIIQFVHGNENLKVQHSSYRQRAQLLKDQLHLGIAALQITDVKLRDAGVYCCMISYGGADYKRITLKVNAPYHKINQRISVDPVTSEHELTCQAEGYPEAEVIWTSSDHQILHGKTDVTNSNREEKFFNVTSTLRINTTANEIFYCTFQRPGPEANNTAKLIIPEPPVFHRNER
Description: ELISA, PD-L1-Fc coated at 0.5 ug/ml. As to the method: (§1) ELISA was used to measure the relative affinity of anti-PD-L1 antibodies from different organisms. For the binding assay, ELISA plate wells (medium binding from Greiner bio one) were coated with 50 μl of human, cynomolgus, murine, rat, canine, rabbity PD-L1-Fc, (0.5 μg/ml in 1× carbonate buffer), hermetically sealed and incubated overnight at 4° C. All the subsequent stages were conducted following standard ELISA protocol described above.

For another experiment, the target named is T2, IL17a (Homo sapiens (Human), UniProt Q16552 24-155).
T2 construct: Off-target antigen in the specificity ELISA
T2 sequence (Q16552 24-155 limits assumed): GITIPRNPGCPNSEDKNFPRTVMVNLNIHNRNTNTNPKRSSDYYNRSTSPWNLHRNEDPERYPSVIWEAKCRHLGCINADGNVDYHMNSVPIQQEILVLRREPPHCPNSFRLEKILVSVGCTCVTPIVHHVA
The experiment can be described thus: ELISA, antigen coated at 1 µg/ml, BCD-135 titrated 5 to 0.0007 µg/ml, OD 450 nm. The procedure:
(§2) ELISA was used to measure the relative affinity of anti-PD-L1 antibodies and other antigens. For binding assay, ELISA plate wells (medium binding from Greiner bio one) were coated with 50 μl of PD-L1-Fc, fPCSK9-EPEA, Ang2-H6F, GM-CSF-FE, CD3-ED-Fc, IL17a, CD38-Fc, IL6R-Fc (1 μg/ml in lx carbonate buffer), hermetically sealed and incubated overnight at 4° C. All the subsequent stages were conducted following standard ELISA protocol. To block a non-specific binding, a buffer BB (200 μL of 0.5% skimmed milk in PBS) was added. The plates were incubated on a shaker for an hour at room temperature. […] The plates were again incubated, shaking for one hour at room temperature, followed by washing for three times each plate well with PBS-Twin buffer. Once washed, (50 μL/well) anti-human Fab HRP-conjugated secondary antibodies (from Pierce-ThermoScientific) were added at 1:5000 ratio in PBS-Tween. The plates were shaken on a rotary shaker (50 min, room temperature) and washed for three times with FSB-Twin buffer, as described above. The colourimetric signal was developed by adding TMB (50 μL/well) until saturation (average 3-5 min), then the development was quenched by adding stop solution (30 μL/well, 10% sulphuric acid). Colour signal was measured at a wavelength of 450 nm using a suitable Tecan-Sunrise plate reader (from Tecan).
Background: An ELISA detects its analyte on a solid surface through an enzyme-linked reagent.

A further experiment deals with T3, cynomolgus PD-L1-Fc (cynomolgus, UniProt G7PSE7 19-238).
T3 construct: not shown: Fc part
T3 sequence (G7PSE7 entry or part of it): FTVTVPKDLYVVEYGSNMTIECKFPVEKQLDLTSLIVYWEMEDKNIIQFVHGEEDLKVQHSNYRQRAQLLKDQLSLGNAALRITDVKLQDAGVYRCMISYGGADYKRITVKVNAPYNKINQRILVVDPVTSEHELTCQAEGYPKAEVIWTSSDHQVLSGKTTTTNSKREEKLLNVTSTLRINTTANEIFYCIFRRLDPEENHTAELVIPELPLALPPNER
Description: ELISA, PD-L1-Fc coated at 0.5 µg/ml, antibody titrated 5 to 0.0007 µg/ml, OD 450 nm. As to the method:
as §1

A further experiment deals with T4, murine PD-L1-Fc (murine, UniProt Q9EP73 19-239, limits assumed).
T4 construct: not shown: Fc part
T4 sequence (Q9EP73 19-239 limits assumed): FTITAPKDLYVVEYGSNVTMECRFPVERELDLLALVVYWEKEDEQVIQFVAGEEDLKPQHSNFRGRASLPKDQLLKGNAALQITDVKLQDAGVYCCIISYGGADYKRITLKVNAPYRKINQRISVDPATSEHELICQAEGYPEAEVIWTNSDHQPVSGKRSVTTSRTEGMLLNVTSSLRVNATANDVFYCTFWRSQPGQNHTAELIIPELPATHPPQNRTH
The description is as above. The procedure:
as §1

For the next experiment, the target named is rat PD-L1-Fc (rat, UniProt D4AE25 19-239). The experiment is described as above. As to the method:
as §1

In the next experiment the target is T5, canine PD-L1-Fc (canine, UniProt E2RKZ5 19-236).
T5 sequence: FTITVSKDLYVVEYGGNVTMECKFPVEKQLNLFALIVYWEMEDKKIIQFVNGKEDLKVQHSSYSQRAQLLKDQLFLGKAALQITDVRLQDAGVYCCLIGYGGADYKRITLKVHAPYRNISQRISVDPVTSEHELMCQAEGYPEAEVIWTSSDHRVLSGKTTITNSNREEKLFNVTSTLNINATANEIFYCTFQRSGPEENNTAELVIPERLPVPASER
The description is as above. As to the method: as §1

Experiment [1] concerns the target T6, human PD-L1-Fc (human, UniProt Q9NZQ7 19-238, limits assumed).
T6 construct: not shown: Fc part
Described as above. As to the method:
as §1

Experiment [2] addresses T7, human PD-L1 (recombinant, in solution) (human, UniProt Q9NZQ7 19-238, limits assumed).
T7 construct: also called human PD-L1 antigen
Description: BLI OctetRed 96, BCD-135 on AR2G sensors, PD-L1 in solution at 10 to 1 ug/ml, 30 C, 1:1 model; human PD-L1. The procedure:
(§3) Constants of the antibody binding affinity to human and cynomolgus PD-L1 were measured with an OctetRed 96 instrument (from ForteBio). […] The assay was carried out at 30 ° C. using PBS containing 0.1% Tween-20 and 0.1% BSA as a reaction buffer. The binding of human and monkey PD-L1 solutions to a sensor-bound antibody was analysed in a work buffer with an antigen concentration of 10 μg/ml to 1 μg/ml.
(§4) The binding curves minus the reference signal were analyzed using Octet Data Analysis (ver 8.2) software according to the standard procedure using the 1:1 interaction model.

For experiment [3], the target named is T6, human PD-L1-Fc. Description: ELISA, antigen coated at 1 µg/ml, BCD-135 titrated 5 to 0.0007 µg/ml, anti-human Fab HRP, OD 450 nm. As to the method:
as §2

Experiment [4] deals with T8, cynomolgus monkey PD-L1 (in solution) (cynomolgus monkey, UniProt G7PSE7 19-238).
T8 construct: also called cynomolgus PD-L1 antigen
T8 sequence (G7PSE7 entry or part of it): as the sequence (G7PSE7 entry or part of it) above
The experiment can be described thus: BLI OctetRed 96, BCD-135 on AR2G sensors, PD-L1 in solution at 10 to 1 ug/ml, 30 C, 1:1 model; cynomolgus PD-L1. As to the method:
as §3, §4

The target in another experiment is T9, FcgRIa (Homo sapiens (Human), UniProt P12314 16-292, C-terminal biotin; the letters of any biotinylation or purification tag are not given).
T9 construct: Biotinylated receptor held on streptavidin sensors; also called Fcg receptor; Fcγ-receptor
T9 sequence (P12314 16-292 limits assumed): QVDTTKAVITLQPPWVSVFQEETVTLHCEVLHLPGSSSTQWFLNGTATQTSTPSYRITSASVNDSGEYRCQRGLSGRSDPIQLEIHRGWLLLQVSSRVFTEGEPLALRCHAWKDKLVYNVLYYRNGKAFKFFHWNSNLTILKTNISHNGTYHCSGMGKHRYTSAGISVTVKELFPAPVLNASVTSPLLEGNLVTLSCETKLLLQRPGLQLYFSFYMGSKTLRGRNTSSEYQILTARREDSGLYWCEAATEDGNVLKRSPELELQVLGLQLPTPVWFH
The experiment can be described thus: Biolayer interferometry (Octet RED96), biotinylated receptor on streptavidin sensors, antibody in solution, phosphate buffer pH 7.4.

The target in experiment [5] is T7, human PD-L1 (recombinant, in solution). Description: BLI Octet Red 96, Fab from E. coli supernatant on anti-FABCH1 sensors, PD-L1 at 30 ug/mL, 1:1 model. As to the method:
Anti-FABCH1-biosensors (SA) were rehydrated for 30 minutes in the reaction buffer containing 10 mM PBS, pH 7.2-7.4, 0.1% Tween-20, 0.1% BSA. The reaction buffer was added into study E. coli supernatant samples to a final concentration of 1×. Then, anti-FABCH1-biosensors were submerged in E. coli supernatants containing Fab fragments of candidate antibodies for 12 hours at 4 ° C. Sensors with surface immobilized Fab fragments were transferred into wells with reaction buffer wherein baseline was recorded (for 60 seconds). Next, sensors were transferred to wells with analyte solution (PD-L1, 30 μg/mL) to associate antigen-antibody complex (300 s). Then, sensors were returned to the wells containing the reaction buffer for the next dissociation step (600 s). After each experiment, used sensors were regenerated by 3-time placing them into the regeneration buffer (Gly-HCl, pH 1.7), thereafter they were used in the next experiment. Obtained curve analysis was carried out using Octet Data Analysis (ver 7.0) software according to the standard procedure using 1:1 interaction model.

T7 sequence (Q9NZQ7 other isoform, or with tags, fused parts or gaps limits assumed): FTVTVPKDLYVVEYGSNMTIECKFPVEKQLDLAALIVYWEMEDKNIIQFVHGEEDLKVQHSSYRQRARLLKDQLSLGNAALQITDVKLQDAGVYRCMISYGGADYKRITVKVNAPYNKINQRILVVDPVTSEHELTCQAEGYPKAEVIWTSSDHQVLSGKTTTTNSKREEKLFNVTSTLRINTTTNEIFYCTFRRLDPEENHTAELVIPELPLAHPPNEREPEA
T6 sequence (Q9NZQ7 19-238 limits assumed): as the sequence (G7PSE7 entry or part of it) above, with T33A, S34A, N62S, Q68R, R82Q, L173F, A185T, I192T, L215H counted along it
rat PD-L1-Fc, sequence (D4AE25 entry or part of it limits assumed): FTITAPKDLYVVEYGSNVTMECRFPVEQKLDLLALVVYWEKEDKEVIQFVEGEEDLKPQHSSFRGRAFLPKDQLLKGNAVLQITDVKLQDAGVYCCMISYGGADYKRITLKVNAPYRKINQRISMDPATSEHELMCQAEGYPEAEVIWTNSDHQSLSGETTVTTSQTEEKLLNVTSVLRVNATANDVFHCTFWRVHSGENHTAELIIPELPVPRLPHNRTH
Description for FcgRIa: To assay the antibody interactions with FcgRIIIaV, FcgRIa, FcRn receptors, the Fortebio Octet RED96 instrument was used. C-terminal biotinylated receptors and streptavidin-coated biosensors (SA-Streptavidin) were used.
Biotinylated receptors were immobilized on the surface of the sensors. Further, the association stage was carried out: the sensors with the bound antigen were submerged into the antibody solutions with different concentrations (a series of antibody dilutions in a working buffer was prepared in advance and placed into the appropriate wells of a 96-well plate). After this, the dissociation stage was carried out: the sensors from the antibody solution were transferred to wells with the working buffer.
To assay the antibody affinity constants to FcgRIIIaV, and FcgRIa, phosphate buffer PH7.4 was used, for FcRn, phosphate buffer PH6.0 was used.

B1: BCD-135 antibody (antibody, human IgG1, lambda, L234A L235A)
heavy: not shown
light: QTVVTQEPSLSVSPGGTVTLTCGLSSGTVTAINYPGWYQQTPGQAPRTLIYNTNTRHSGVPDRFSGSISGNKAALTITGAQAEDEADYYCALYMGNGGHMFGGGTKLTVLGQPKAAPSVTLFPPSSEELQANKATLVCLISDFYPGAVTVAWKADSSPVKAGVETTTPSKQSNNKYAASSYLSLTPEQWKSHRSYSCQVTHEGSTVEKTVAPTECS
notes: also called anti-PD-L1 antibody; modified IgG1 antibody
For the molecule B1, the binding result was “no binding” with rabbit PD-L1-Fc; “no binding (tested: 5 µg/ml)” with IL17a; “no binding (tested: 5 µg/ml)” in the experiment with murine PD-L1-Fc; “no binding (tested: 5 µg/ml)” in the experiment with rat PD-L1-Fc; “no binding (tested: 5 µg/ml)” with canine PD-L1-Fc; “no binding” with FcgRIa. For the same molecule, the EC50 (read off the curve) (in general, the concentration giving half of the maximal effect) with cynomolgus PD-L1-Fc is ~5 ng/mL; in the experiment with human PD-L1-Fc [1] it was ~6 ng/mL; with human PD-L1-Fc [3], ~6 ng/mL. Moreover, the Kd (usually the free concentration of one partner at which half of the binding sites on the other are occupied at equilibrium, for simple one-to-one binding) was < 0.001 nM in experiment [2] and 0.555 nM in experiment [4].

B2: wild type BCD-135 Fab antibody (Fab, V domains shown)
VH: EVQLVESGGGVVRPGGSLRLSCAASGFTFDDYAMSWVRQAPGKGLEWVSDISWSGSNTNYADSVKGRFTISRDNAKNSLYLQMNSLRAEDTALYHCARAPLLLAMTFGVGSWGQGTLVTVSS
VL: QTVVTQEPSLSVSPGGTVTLTCGLSSGTVTAINYPGWYQQTPGQAPRTLIYNTNTRHSGVPDRFSGSISGNKAALTITGAQAEDEADYYCALYMGNGGHMFGGGTK
notes: Fab made in E. coli and used as supernatant; also called Wild-BCD-135VH; control wild BCD-135 Fab
For B2, in [5], the Response came out at 0.0903.

B3: 4m-BCD-135VH (Fab, V domains shown)
VH: EVQLVESGGGVVRPGGSLRLSCAASGFTFANYAMSWVRQAPGKGLEWVSDISWSGSNTNYADSVKGRFTISRDNAKNSLYLQMNSLRAEDTALYHCAKAPLPLATTFGVGSWGQGTLVTVSS
VL: QTVVTQEPSLSVSPGGTVTLTCGLSSGTVTAINYPGWYQQTPGQAPRTLIYNTNTRHSGVPDRFSGSISGNKAALTITGAQAEDEADYYCALYVGTGSHMFGGGTK
notes: Substitutions derived from the printed CDR strings; Fab from E. coli supernatant; also called BCD-135 mutant Fab antibody 4m
For the molecule B3, the Response in experiment [5] is 0.0637.

B4: 6m-BCD-135VH (Fab, V domains shown)
VH: EVQLVESGGGVVRPGGSLRLSCAASGFTFSTYAMSWVRQAPGKGLEWVSDISWSGSNTNYADSVKGRFTISRDNAKNSLYLQMNSLRAEDTALYHCAKAPLVLAITFGVGSWGQGTLVTVSS
VL: QTVVTQEPSLSVSPGGTVTLTCGLSSGTVTAINYPGWYQQTPGQAPRTLIYNTNTRHSGVPDRFSGSISGNKAALTITGAQAEDEADYYCALYTGTGSHMFGGGTK
notes: Substitutions derived from the printed CDR strings; Fab from E. coli supernatant; also called BCD-135 mutant Fab antibody 6m
Take B4: the Response in experiment [5] came out at 0.0945.

B5: 7m-BCD-135VH (Fab, V domains shown)
VH: EVQLVESGGGVVRPGGSLRLSCAASGFTFADYAMSWVRQAPGKGLEWVSDISWSGSNTNYADSVKGRFTISRDNAKNSLYLQMNSLRAEDTALYHCAKAPLPSAITFGVGSWGQGTLVTVSS
VL: QTVVTQEPSLSVSPGGTVTLTCGLSSGTVTAINYPGWYQQTPGQAPRTLIYNTNTRHSGVPDRFSGSISGNKAALTITGAQAEDEADYYCALYEGTGSHMFGGGTK
notes: Substitutions derived from the printed CDR strings; Fab from E. coli supernatant; also called BCD-135 mutant Fab antibody 7m
Consider B5, for which, in experiment [5], the Response worked out at 0.0637.

B6: 5m-BCD-135VH (Fab, V domains shown)
VH: EVQLVESGGGVVRPGGSLRLSCAASGFTFKSYAISWVRQAPGKGLEWVSDISWSGSNTNYADSVKGRFTISRDNAKNSLYLQMNSLRAEDTALYHCAKAPLMLAATFGVGSWGQGTLVTVSS
VL: QTVVTQEPSLSVSPGGTVTLTCGLSSGTVTAINYPGWYQQTPGQAPRTLIYNTNTRHSGVPDRFSGSISGNKAALTITGAQAEDEADYYCALYYGTGSHMFGGGTK
notes: Substitutions derived from the printed CDR strings; Fab from E. coli supernatant; also called BCD-135 mutant Fab antibody 5m
B6: in experiment [5], the Response was determined as 0.0623.

B7: 1m-BCD-135VH (Fab, V domains shown)
VH: EVQLVESGGGVVRPGGSLRLSCAASGFTFANYAMSWVRQAPGKGLEWVSDISWSGSNTNYADSVKGRFTISRDNAKNSLYLQMNSLRAEDTALYHCAKAPLLLATTFGVGSWGQGTLVTVSS
VL: QTVVTQEPSLSVSPGGTVTLTCGLSSGTVTAINYPGWYQQTPGQAPRTLIYNTNTRHSGVPDRFSGSISGNKAALTITGAQAEDEADYYCALYVGTGSHMFGGGTK
notes: Fab from E. coli supernatant; also called BCD-135 mutant Fab antibody 1m
As for B7, the Response in experiment [5] came out at 0.0971.

B8: 2m-BCD-135VH (Fab, V domains shown)
VH: EVQLVESGGGVVRPGGSLRLSCAASGFTFNDYAMSWVRQAPGKGLEWVSDISWSGSNTNYADSVKGRFTISRDNAKNSLYLQMNSLRAEDTALYHCAKAPLPLATTFGVGSWGQGTLVTVSS
VL: QTVVTQEPSLSVSPGGTVTLTCGLSSGTVTAINYPGWYQQTPGQAPRTLIYNTNTRHSGVPDRFSGSISGNKAALTITGAQAEDEADYYCALYTGTGSHMFGGGTK
notes: Substitutions derived from the printed CDR strings; Fab from E. coli supernatant; also called BCD-135 mutant Fab antibody 2m
Consider B8, for which, in [5], the Response amounted to 0.0505.
